The source of these data is publication PMC8887465.

Series [1] concerns the target Staphylococcus aureus PemK toxin, wild type (Staphylococcus aureus CH-91 (plasmid pCH91)). Nature of the series: SEC-MALS. On the technique in general: SEC sorts molecules by how far they enter the pores of the column.
The target in another series is T1, PemK WT (Staphylococcus aureus CH-91 (plasmid …, UniProt L7PFJ6 1-112)).
T1 sequence: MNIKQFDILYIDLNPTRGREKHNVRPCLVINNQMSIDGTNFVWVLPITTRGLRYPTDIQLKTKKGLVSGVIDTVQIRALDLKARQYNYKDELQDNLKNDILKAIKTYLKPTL
Put plainly: NMR titration.

By stoichiometry N is commonly meant a count of units in the complex or per binding partner. In series [1], “Staphylococcus aureus PemK toxin, wild type (enzyme)” showed a stoichiometry N of 2.

Turning to UUUAUUAA (ssRNA, deoxyuridine at position 3 (dU3), rest RNA) [ssRNA UUdUAUUAA], the binding result with PemK WT is “binds”.
